Results taken from article PMC9482650, “Quantitative fragmentomics allow affinity mapping of interactomes” (Nature Communications, 2022).
Numbering of substitutions follows the chain as printed. Each block holds one binder with its values, some of them ahead of it.

Legend:
Assay in all cases: holdup assay
Design in all cases: key: below the threshold = too weak to quantify, mostly under pKd 3.1 to 4
Conditions in all cases: plain residues with an end cap or a label only (N-terminal biotin on a linker: ado-ado)
NHERF3_4, Q5T2W1 = target: T1, NHERF3_4, Q5T2W1
T1 sequence (Q5T2W1 373-468, limits assumed, looked up): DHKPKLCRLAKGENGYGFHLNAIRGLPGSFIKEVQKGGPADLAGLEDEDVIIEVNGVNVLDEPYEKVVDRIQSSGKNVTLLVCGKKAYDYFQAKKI

PDLIM1, O00151 = target: PDLIM1, O00151
APBA1_2, Q02410 = target: T2, APBA1_2, Q02410
T2 sequence (Q02410 742-832, limits assumed, looked up): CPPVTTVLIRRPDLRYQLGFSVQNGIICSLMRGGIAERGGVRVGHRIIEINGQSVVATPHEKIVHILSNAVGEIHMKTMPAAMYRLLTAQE

SIPA1L2, Q9P2F8 = target: T3, SIPA1L2, Q9P2F8
T3 sequence (Q9P2F8 945-1036, limits assumed, looked up): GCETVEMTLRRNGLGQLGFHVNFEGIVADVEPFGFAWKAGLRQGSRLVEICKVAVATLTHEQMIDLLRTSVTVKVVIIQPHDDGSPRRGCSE

MAST2, Q6P0Q8 = target: MAST2, Q6P0Q8
MPP2, Q14168 = target: T4, MPP2, Q14168
T4 sequence (Q14168 180-250, limits assumed, looked up): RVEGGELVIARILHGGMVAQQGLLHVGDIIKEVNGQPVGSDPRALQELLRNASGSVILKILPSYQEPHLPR

NOS1, P29475 = target: NOS1, P29475
FRMPD3, Q5JV73 = target: FRMPD3, Q5JV73
APBA2_2, Q99767 = target: T5, APBA2_2, Q99767
T5 sequence (Q99767 654-744, limits assumed, looked up): T2 sequence (Q02410 742-832, limits assumed, looked up) with R10K, R15K, P59A, H65Q, I66A, A70S, Y84F, A89G

MAGI2_4, Q86UL8 = target: MAGI2_4, Q86UL8
LRRC7, Q96NW7 = target: T6, LRRC7, Q96NW7
T6 sequence (Q96NW7 1440-1537, limits assumed, looked up): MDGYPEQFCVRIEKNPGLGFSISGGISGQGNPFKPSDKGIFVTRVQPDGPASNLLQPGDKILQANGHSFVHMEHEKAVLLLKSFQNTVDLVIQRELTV

FRMPD1, Q5SYB0 = target: T7, FRMPD1, Q5SYB0
T7 sequence (Q5SYB0 52-145, limits assumed, looked up): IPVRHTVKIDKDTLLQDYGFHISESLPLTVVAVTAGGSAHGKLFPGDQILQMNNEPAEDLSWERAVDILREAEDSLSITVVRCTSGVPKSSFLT

TJP1_2, Q07157 = target: TJP1_2, Q07157
GRIP2_5, Q9C0E4 = target: GRIP2_5, Q9C0E4
DLG4_1, P78352 = target: DLG4_1, P78352
LNX1_2, Q8TBB1 = target: LNX1_2, Q8TBB1
Inadl_6, Q8NI35 = target: Inadl_6, Q8NI35
RADIL, Q96JH8 = target: T8, RADIL, Q96JH8
T8 sequence (Q96JH8 971-1071, limits assumed, looked up): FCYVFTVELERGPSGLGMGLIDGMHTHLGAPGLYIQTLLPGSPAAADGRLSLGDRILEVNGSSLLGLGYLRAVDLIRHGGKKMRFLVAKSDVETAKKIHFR

MAGI2_5, Q86UL8 = target: MAGI2_5, Q86UL8
APBA2_1, Q99767 = target: T9, APBA2_1, Q99767
T9 sequence (Q99767 563-664, limits assumed, looked up): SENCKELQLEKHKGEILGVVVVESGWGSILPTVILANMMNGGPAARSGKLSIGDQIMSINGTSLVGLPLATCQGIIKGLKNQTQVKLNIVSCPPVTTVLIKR

TIAM2, Q8IVF5 = target: T10, TIAM2, Q8IVF5
T10 sequence (Q8IVF5 885-986, limits assumed, looked up): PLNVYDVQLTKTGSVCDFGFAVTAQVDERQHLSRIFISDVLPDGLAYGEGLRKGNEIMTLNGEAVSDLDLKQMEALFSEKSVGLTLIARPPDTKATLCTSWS

GRIP1_5, Q9Y3R0 = target: T11, GRIP1_5, Q9Y3R0
T11 sequence (Q9Y3R0 568-668, limits assumed, looked up): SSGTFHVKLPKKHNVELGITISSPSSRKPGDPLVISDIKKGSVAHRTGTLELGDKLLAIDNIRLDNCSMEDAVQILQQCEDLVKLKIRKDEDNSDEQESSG

LNX2_2, Q8N448 = target: T12, LNX2_2, Q8N448
T12 sequence (Q8N448 334-432, limits assumed, looked up): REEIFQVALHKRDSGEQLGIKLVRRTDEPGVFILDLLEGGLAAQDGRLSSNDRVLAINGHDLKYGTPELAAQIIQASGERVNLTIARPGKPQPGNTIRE

DLG3_2, Q92796 = target: T13, DLG3_2, Q92796
T13 sequence (Q92796 221-321, limits assumed, looked up): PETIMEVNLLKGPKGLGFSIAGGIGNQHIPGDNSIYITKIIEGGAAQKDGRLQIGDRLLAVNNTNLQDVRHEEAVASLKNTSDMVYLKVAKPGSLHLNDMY

SCRIB_3, Q14160 = target: SCRIB_3, Q14160
SCRIB_3, Q14160, sequence (Q14160 999-1103): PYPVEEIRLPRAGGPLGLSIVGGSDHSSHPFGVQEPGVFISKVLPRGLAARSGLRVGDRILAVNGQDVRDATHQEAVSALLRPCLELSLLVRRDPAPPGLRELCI

GRIP2_5, Q9C0E4, sequence (Q9C0E4 544-642): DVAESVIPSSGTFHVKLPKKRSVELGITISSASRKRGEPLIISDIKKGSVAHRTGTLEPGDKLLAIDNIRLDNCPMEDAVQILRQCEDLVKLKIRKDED
PDLIM1, O00151, sequence (O00151 1-87): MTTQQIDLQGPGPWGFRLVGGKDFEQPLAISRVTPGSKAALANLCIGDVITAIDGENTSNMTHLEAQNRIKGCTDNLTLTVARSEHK
TJP1_2, Q07157, sequence (Q07157 181-274): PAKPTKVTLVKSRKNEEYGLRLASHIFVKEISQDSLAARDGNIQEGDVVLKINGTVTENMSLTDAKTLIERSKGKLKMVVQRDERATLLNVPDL
Inadl_6, Q8NI35, sequence (Q8NI35 1058-1167): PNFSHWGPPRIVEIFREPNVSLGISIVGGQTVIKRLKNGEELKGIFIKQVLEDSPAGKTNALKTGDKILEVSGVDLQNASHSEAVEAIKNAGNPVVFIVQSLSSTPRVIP
FRMPD3, Q5JV73, sequence (Q5JV73 12-100): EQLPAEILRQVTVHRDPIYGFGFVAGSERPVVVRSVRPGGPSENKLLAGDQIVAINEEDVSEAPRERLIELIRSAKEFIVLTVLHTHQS
NOS1, P29475, sequence (P29475 9-101): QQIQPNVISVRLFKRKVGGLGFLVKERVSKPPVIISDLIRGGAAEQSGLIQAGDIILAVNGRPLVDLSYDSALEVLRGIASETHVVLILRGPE
MAGI2_5, Q86UL8, sequence (Q86UL8 915-1017): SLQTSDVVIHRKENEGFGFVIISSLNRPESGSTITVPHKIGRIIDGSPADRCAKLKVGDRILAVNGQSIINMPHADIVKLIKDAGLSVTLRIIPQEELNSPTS
LNX1_2, Q8TBB1, sequence (Q8TBB1 371-470): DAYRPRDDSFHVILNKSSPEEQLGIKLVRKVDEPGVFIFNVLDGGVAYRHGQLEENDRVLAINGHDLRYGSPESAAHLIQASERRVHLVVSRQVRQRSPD
MAGI2_4, Q86UL8, sequence (Q86UL8 772-865): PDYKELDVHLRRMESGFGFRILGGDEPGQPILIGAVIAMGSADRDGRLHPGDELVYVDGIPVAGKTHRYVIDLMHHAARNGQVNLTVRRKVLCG
DLG4_1, P78352, sequence (P78352 62-152): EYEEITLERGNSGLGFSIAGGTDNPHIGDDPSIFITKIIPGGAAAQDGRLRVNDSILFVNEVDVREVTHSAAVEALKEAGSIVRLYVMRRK
MAST2, Q6P0Q8, sequence (Q6P0Q8 1099-1202): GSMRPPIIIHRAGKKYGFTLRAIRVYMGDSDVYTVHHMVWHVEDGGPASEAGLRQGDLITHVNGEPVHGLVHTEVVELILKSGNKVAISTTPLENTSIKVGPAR

- pKd (NHERF3_4, Q5T2W1): below the threshold
- pKd (PDLIM1, O00151): 5.11
- pKd (APBA1_2, Q02410): below the threshold
- pKd (SIPA1L2, Q9P2F8): below the threshold
- pKd (MAST2, Q6P0Q8): 4.46
- pKd (MPP2, Q14168): below the threshold
- pKd (NOS1, P29475): below the threshold
- pKd (FRMPD3, Q5JV73): below the threshold
- pKd (APBA2_2, Q99767): below the threshold
- pKd (MAGI2_4, Q86UL8): below the threshold
- pKd (LRRC7, Q96NW7): below the threshold
- pKd (FRMPD1, Q5SYB0): below the threshold
- pKd (TJP1_2, Q07157): 3.51
- pKd (GRIP2_5, Q9C0E4): below the threshold
- pKd (DLG4_1, P78352): below the threshold
- pKd (LNX1_2, Q8TBB1): below the threshold
- pKd (Inadl_6, Q8NI35): below the threshold
- pKd (RADIL, Q96JH8): below the threshold
- pKd (MAGI2_5, Q86UL8): 3.95
- pKd (APBA2_1, Q99767): below the threshold
- pKd (TIAM2, Q8IVF5): below the threshold
- pKd (GRIP1_5, Q9Y3R0): below the threshold
- pKd (LNX2_2, Q8N448): below the threshold
- pKd (DLG3_2, Q92796): below the threshold
- pKd (SCRIB_3, Q14160): 3.51
B1: MYPN, Q86TC9 (peptide)
chain: SRSVVESDEL

- pKd (NHERF3_4, Q5T2W1): below the threshold
- pKd (PDLIM1, O00151): below the threshold
- pKd (APBA1_2, Q02410): below the threshold
- pKd (SIPA1L2, Q9P2F8): below the threshold
- pKd (MAST2, Q6P0Q8): below the threshold
- pKd (MPP2, Q14168): 4.78
- pKd (NOS1, P29475): 4.21
- pKd (FRMPD3, Q5JV73): below the threshold
- pKd (APBA2_2, Q99767): below the threshold
- pKd (MAGI2_4, Q86UL8): 3.47
- pKd (LRRC7, Q96NW7): below the threshold
- pKd (FRMPD1, Q5SYB0): below the threshold
- pKd (TJP1_2, Q07157): 3.5
- pKd (GRIP2_5, Q9C0E4): below the threshold
- pKd (DLG4_1, P78352): below the threshold
- pKd (LNX1_2, Q8TBB1): 3.66
- pKd (Inadl_6, Q8NI35): below the threshold
- pKd (RADIL, Q96JH8): 3.76
- pKd (MAGI2_5, Q86UL8): below the threshold
- pKd (APBA2_1, Q99767): below the threshold
- pKd (TIAM2, Q8IVF5): 3.81
- pKd (GRIP1_5, Q9Y3R0): below the threshold
- pKd (LNX2_2, Q8N448): 4.77
- pKd (DLG3_2, Q92796): 3.91
- pKd (SCRIB_3, Q14160): 3.71
B2: CNTNAP2, Q9UHC6 (peptide)
chain: IDESKKEWLI

- pKd (PDLIM1, O00151): below the threshold
- pKd (APBA1_2, Q02410): 1.83
- pKd (SIPA1L2, Q9P2F8): below the threshold
- pKd (MAST2, Q6P0Q8): 4.77
- pKd (MPP2, Q14168): below the threshold
- pKd (FRMPD3, Q5JV73): below the threshold
- pKd (APBA2_2, Q99767): below the threshold
- pKd (MAGI2_4, Q86UL8): 1.79
- pKd (LRRC7, Q96NW7): below the threshold
- pKd (GRIP2_5, Q9C0E4): below the threshold
- pKd (DLG4_1, P78352): below the threshold
- pKd (LNX1_2, Q8TBB1): below the threshold
- pKd (Inadl_6, Q8NI35): below the threshold
- pKd (RADIL, Q96JH8): below the threshold
- pKd (APBA2_1, Q99767): below the threshold
- pKd (TIAM2, Q8IVF5): 1.96
- pKd (GRIP1_5, Q9Y3R0): below the threshold
- pKd (DLG3_2, Q92796): 4.26
- pKd (SCRIB_3, Q14160): 1.79
B3: MUC3A, MUC3B, Q02505;Q9H195 (peptide)
chain: KRPEMTSSSV

- pKd (SIPA1L2, Q9P2F8): below the threshold
- pKd (MAST2, Q6P0Q8): 4.97
- pKd (MPP2, Q14168): below the threshold
- pKd (APBA2_2, Q99767): below the threshold
- pKd (FRMPD1, Q5SYB0): below the threshold
- pKd (LNX1_2, Q8TBB1): below the threshold
- pKd (RADIL, Q96JH8): 4.44
- pKd (MAGI2_5, Q86UL8): below the threshold
- pKd (TIAM2, Q8IVF5): below the threshold
- pKd (LNX2_2, Q8N448): below the threshold
- pKd (DLG3_2, Q92796): below the threshold
B4: NF2, P35240;P35240-1 (peptide)
chain: KSRVAFFEEL

- pKd (NHERF3_4, Q5T2W1): 3.87
- pKd (PDLIM1, O00151): below the threshold
- pKd (APBA1_2, Q02410): 3.56
- pKd (SIPA1L2, Q9P2F8): below the threshold
- pKd (MAST2, Q6P0Q8): 5.05
- pKd (MPP2, Q14168): below the threshold
- pKd (NOS1, P29475): 3.64
- pKd (FRMPD3, Q5JV73): below the threshold
- pKd (APBA2_2, Q99767): below the threshold
- pKd (MAGI2_4, Q86UL8): below the threshold
- pKd (LRRC7, Q96NW7): below the threshold
- pKd (FRMPD1, Q5SYB0): below the threshold
- pKd (TJP1_2, Q07157): below the threshold
- pKd (GRIP2_5, Q9C0E4): below the threshold
- pKd (DLG4_1, P78352): below the threshold
- pKd (LNX1_2, Q8TBB1): below the threshold
- pKd (Inadl_6, Q8NI35): below the threshold
- pKd (RADIL, Q96JH8): below the threshold
- pKd (MAGI2_5, Q86UL8): below the threshold
- pKd (APBA2_1, Q99767): below the threshold
- pKd (TIAM2, Q8IVF5): below the threshold
- pKd (GRIP1_5, Q9Y3R0): below the threshold
- pKd (LNX2_2, Q8N448): below the threshold
- pKd (DLG3_2, Q92796): below the threshold
- pKd (SCRIB_3, Q14160): 3.6
B5: REELD1, A0A1B0GV85 (peptide)
chain: PSVGSKKTVL

- pKd (NHERF3_4, Q5T2W1): 3.56
- pKd (PDLIM1, O00151): below the threshold
- pKd (APBA1_2, Q02410): 3.73
- pKd (SIPA1L2, Q9P2F8): below the threshold
- pKd (MAST2, Q6P0Q8): 5.35
- pKd (MPP2, Q14168): below the threshold
- pKd (NOS1, P29475): 3.63
- pKd (FRMPD3, Q5JV73): below the threshold
- pKd (APBA2_2, Q99767): below the threshold
- pKd (MAGI2_4, Q86UL8): 3.87
- pKd (LRRC7, Q96NW7): 3.92
- pKd (FRMPD1, Q5SYB0): below the threshold
- pKd (TJP1_2, Q07157): below the threshold
- pKd (GRIP2_5, Q9C0E4): below the threshold
- pKd (DLG4_1, P78352): 4.37
- pKd (LNX1_2, Q8TBB1): below the threshold
- pKd (Inadl_6, Q8NI35): below the threshold
- pKd (RADIL, Q96JH8): below the threshold
- pKd (MAGI2_5, Q86UL8): 4.26
- pKd (APBA2_1, Q99767): below the threshold
- pKd (TIAM2, Q8IVF5): below the threshold
- pKd (GRIP1_5, Q9Y3R0): below the threshold
- pKd (LNX2_2, Q8N448): 3.66
- pKd (DLG3_2, Q92796): 4.61
- pKd (SCRIB_3, Q14160): 4.98
B6: CRIPT, Q9P021 (peptide)
chain: DTKNYKQTSV
